Results on four molecules are retold here after patent publication US20160369009A1 (published 2016).

The target in assay [1] is T1, human kallikrein-2 (hK2) (human, UniProt P20151 25-261).
T1 construct: The mature protein is said to be underlined, but the underlining is not recoverable from the text; In the assay hK2 was amine-coupled to a CM4 chip; also called human glandular kallikrein 2; antigen hK2
Description: SPR, Biacore 3000, hK2 on CM4 chip, mean of channels fc2 and fc3. The method, then: (§1) All binding experiments were performed on CM4 chip on a Biacore 3000 instrument. The chip and all the reagents needed for activation, immobilization, deactivation, binding and regeneration were purchased from GE Healthcare and used according to the guidelines from the manufacturer.
(§2) The dissociation phase data was fitted and the dissociation rate constants (koff) were estimated (see Table 2).

Assay [2] deals with T1, human kallikrein-2 (hK2). Description: SPR, Biacore 3000, hK2 on CM4 chip, antibody 6.25-100 nM, mean of 18/18 fitted experiments. On the procedure:
as §1
(§3) In order to estimate the association rate constants, the dissociation rate constants (Table 2) were used in the fitted equations.
(§4) All fitted data was used in order to calculate an average value of the association rate constant and the standard deviation for each antibody (see Table 3).
(In general: Surface plasmon resonance follows binding to a sensor surface in real time, without labels.)

Assay [3] deals with T1, human kallikrein-2 (hK2). In words: SPR, Biacore 3000, hK2 amine-coupled on CM4 chip, channel fc2, 50 nM antibody, 480 min dissociation. On the procedure: as §1, §2
In assay [4] the target is T1, human kallikrein-2 (hK2). In words: SPR, Biacore 3000, hK2 amine-coupled on CM4 chip, channel fc3, 50 nM antibody, 480 min dissociation. On the procedure: as §1, §2
Assay [5] has as its target T1, human kallikrein-2 (hK2). Description: SPR, Biacore 3000, hK2 on CM4 chip, mean KD from kon and koff. The method, then: as §1
Assay [6] addresses T1, human kallikrein-2 (hK2). In words: SPR, Biacore 3000, hK2 on CM4 chip, antibody 6.25-100 nM, mean of 17/18 fitted experiments. The method, then:
as §1, §3, §4

Assay [7] addresses T1, human kallikrein-2 (hK2). Description: SPR, Biacore 3000, hK2 on CM4 chip, antibody 6.25-100 nM, mean of 15/18 fitted experiments. On the procedure: as §1, §3, §4

T1 sequence (P20151 25-261 limits assumed): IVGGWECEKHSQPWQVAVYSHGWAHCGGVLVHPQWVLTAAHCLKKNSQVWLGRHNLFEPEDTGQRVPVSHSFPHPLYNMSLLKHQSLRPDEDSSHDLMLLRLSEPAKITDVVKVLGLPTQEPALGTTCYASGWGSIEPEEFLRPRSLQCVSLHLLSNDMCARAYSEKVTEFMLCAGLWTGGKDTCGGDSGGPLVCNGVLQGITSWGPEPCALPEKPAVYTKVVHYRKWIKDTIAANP

B1: h11B6-DFO (humanised 11B6 conjugated with deferoxamine) (antibody, human IgG1, kappa, V domains shown)
VH: QVQLQESGPGLVKPSDTLSLTCAVSGNSITSDYAWNWIRQPPGKGLEWIGYISYSGSTTYNPSLKSRVTMSRDTSKNQFSLKLSSVTAVDTAVYYCATGYYYGSGFWGQGTLVTVSS
VL: DIVLTQSPDSLAVSLGERATINCKASESVEYFGTSLMHWYQQKPGQPPKLLIYAASNRESGVPDRFSGSGSGTDFTLTISSLQAEDVAVYYCQQTRKVPYTFGQGTKLEIKR
modifications: DFO (deferoxamine) chelator coupled; residues and chain not stated
notes: This is the h11B6 IgG1/kappa carrying DFO; also called h1166-DFO; DFO-h11B6
In the case of B1, the off-rate (koff) is 5.7e-05 s⁻¹ in the assay with human kallikrein-2 (hK2) [1], 5.8e-05 s⁻¹ in the assay with human kallikrein-2 (hK2) [3] and 5.5e-05 s⁻¹ with human kallikrein-2 (hK2) [4]. The molecule further displayed an association rate constant (kon) with human kallikrein-2 (hK2) [2] of 111000 M⁻¹ s⁻¹. Further, binding in the assay with human kallikrein-2 (hK2) [5] was characterised by a dissociation constant (Kd) of 540 pM.

B2: h11B6-DTPA (humanised 11B6 conjugated with DTPA chelator) (antibody, V domains shown)
VH: B1 VH
VL: B1 VL
modifications: DTPA chelator coupled; residues and chain not stated
notes: This is the h11B6 IgG1/kappa carrying a chelator; also called h1166-DTPA; H1166-DTPA
As to B2, the association rate constant (kon) with human kallikrein-2 (hK2) [6] turned out to be 182000 M⁻¹ s⁻¹. Moreover, the koff with human kallikrein-2 (hK2) [1] was found to be 0.000127 s⁻¹; with human kallikrein-2 (hK2) [3] it was 6.3e-05 s⁻¹; in the assay with human kallikrein-2 (hK2) [4], 0.000191 s⁻¹. In the assay with human kallikrein-2 (hK2) [5], this molecule registered a Kd of 930 pM.

B3: humanised 11B6 antibody (h11B6), IgG1/kappa (antibody, V domains shown)
VH: B1 VH
VL: B1 VL
notes: Expressed transiently in HEK293 cells; also called h1186
On to B3, for which the kon with human kallikrein-2 (hK2) [7] turned out to be 117000 M⁻¹ s⁻¹. Also, the koff was found to be 6.7e-05 s⁻¹ in the assay with human kallikrein-2 (hK2) [1], 6.4e-05 s⁻¹ with human kallikrein-2 (hK2) [3] and 6.9e-05 s⁻¹ with human kallikrein-2 (hK2) [4]. This molecule yielded a Kd with human kallikrein-2 (hK2) [5] of 650 pM.

B4: murine 11B6 antibody (m11B6), parent murine anti-hK2 monoclonal antibody (antibody, mouse IgG1, kappa, V domains shown)
VH: DVQLQESGPGLVKPSQSLSLTCTVTGNSITSDYAWNWIRQFPGNRLEWMGYISYSGSTTYSPSLKSRFSITRDTSKNQFFLQLNSVTPEDTATYFCATGYYYGSGFWGQGTLVTVSS
VL: DIVLTQSPASLAVSLGQRATISCRASESVEYFGTSLMHWYRQKPGQPPKLLIYAASNVESGVPARFSGSGSGTDFSLNIQPVEEDDFSMYFCQQTRKVPYTFGGGTKLEIKR
notes: Whole murine IgG obtained from the University of Turku; also called mAb 11B6; ml 1B6
With B4, the koff came to 3.4e-05 s⁻¹ with human kallikrein-2 (hK2) [1], 1.9e-05 s⁻¹ with human kallikrein-2 (hK2) [3] and 4.9e-05 s⁻¹ with human kallikrein-2 (hK2) [4]. In the assay with human kallikrein-2 (hK2) [2], this molecule registered a kon of 248000 M⁻¹ s⁻¹. In the assay with human kallikrein-2 (hK2) [5], this molecule yielded a Kd of 190 pM.

Usually koff stands for the first-order rate constant of dissociation. Lower therefore signals slow dissociation. Broadly, the kon is a measure of how fast the partners come together. The low end stands for slow association, the high end for fast association. As usually defined, the Kd is the free concentration of one partner at which half of the binding sites on the other are occupied at equilibrium, for simple one-to-one binding.
